Laboratory results reported in US6893843B2, “Nucleic acids” (priority 1990, dated 2005).
Where two headings read alike, the source gives them in different places. No end group written: not given here.

Key:
trypsin = assay: Inhibition of trypsin (TGPLpNA substrate); assay type: biochemical
Protocol: (§1) 100 μl inhibitor (1 μg/ml) and 100 μl trypsin (1 μg/ml) or plasmin (1 μg/ml) as appropriate were incubated for 30 minutes before adding the substrate, 0.1 mM tosyl-glycyl-prolyl-lysin-pNA (Boehringer Mannheim, FRG) in 0.05M HEPES, 0.12M NaCl, pH7.5.

Proteinase 3 = target: T1, Proteinase 3 (Homo sapiens, UniProt P24158); assay: Inhibition of proteinase 3 (elastin-FITC hydrolysis); assay type: biochemical; conditions: 37° C., 4 hours, pH 8.5, read-out: IC50 against proteinase 3
T1 construct: Proteinase 3 was purified from human polymorphonuclear leukocytes using the method of Ludemann; from tissue; host or cells: human polymorphonuclear leukocytes
T1 sequence (P24158 28-256): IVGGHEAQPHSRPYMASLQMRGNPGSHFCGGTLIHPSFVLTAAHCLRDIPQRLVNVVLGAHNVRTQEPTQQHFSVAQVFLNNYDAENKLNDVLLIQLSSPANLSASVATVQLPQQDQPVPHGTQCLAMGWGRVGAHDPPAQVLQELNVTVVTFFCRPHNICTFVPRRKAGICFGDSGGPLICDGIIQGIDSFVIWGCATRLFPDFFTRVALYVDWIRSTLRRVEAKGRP
Protocol: Proteinase 3 was purified from human polymorphonuclear leukocytes using the method of Ludemann reported in J Exp Med 171, 357-362, 1990. The absence of human leukocyte elastase and cathespin G was confirmed by the lack of activity of the proteinase 3 preparation with the substrates methoxy-succinyl-ala-ala-pro-val-p-nitroanilide (AAPVpNA), and succinyl-ala-ala-phe-p-nitroanilide respectively according to the method of Nakajima (7).
The elastinolytic activity was determined by hydrolysis of bovine ligamentum nuchae elastin-FITC (Elastin Products Corporation, USA).
The proteinase 3 preparation (1 μl) was preincubated at 37° C. for 30 minutes with the elastase inhibitor of formula I (0-1 μg) in carbonate buffer (50 μl, 0.1M), NaN3 (0.02%), Brij 35 (0.01%), pH8,5. Elastin-FITC (1 mg) in carbonate buffer (100 μl, 0.1M), NaN3 (0.02%), Brij 35 (0.01%), pH8.5. The mixture was incubated at 37° C. with gentle agitation for 4 hours, and then centrifuged at 6000×g. The supernatants were diluted 1:20 and the fluorescence of the solubilised elastin-FITC was determined using a Perkin Elmer LS 50 microtiterplate reader at Ex489 nm, Em 513 nm. Fluorescence was corrected by enzyme free controls and inhibition expressed in % of inhibitor free controls.

[1] = target: porcine pancreatic elastase (Sus scrofa, UniProt P00772); assay: Inhibition of porcine pancreatic elastase (AAPV-AFC fluorogenic substrate); assay type: biochemical
porcine pancreatic elastase, sequence (P00772 27-266): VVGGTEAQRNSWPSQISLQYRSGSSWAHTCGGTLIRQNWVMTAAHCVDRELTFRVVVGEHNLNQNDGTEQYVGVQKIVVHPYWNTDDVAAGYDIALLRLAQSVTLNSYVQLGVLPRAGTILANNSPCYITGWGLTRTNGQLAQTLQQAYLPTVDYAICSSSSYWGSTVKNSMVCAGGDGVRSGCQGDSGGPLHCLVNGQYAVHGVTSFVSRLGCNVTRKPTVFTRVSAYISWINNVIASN
Protocol: The activity of porcine pancreatic elastase (E.C. 3.4.21.36) was determined using the flourogenic substrate methoxy-succinyl-alanyl-alanyl-prolyl-valyl-trifluoromethylcoumarine (AAPV-AFC, Bachem, Bubendorf, Switzerland).
Elastase (100 μl) and inhibitor (100 μl) were pre-incubated for 30 minutes. A solution of substrate (1.8 ml of a 0.1 mM solution) was then added. Flourescence, Ex 400 Em 505, was followed and the %-inhbition was calculated from the initial activity of samples and controls. The dissociation constant (Ki) was determined according to the method of Green and Work (8).

Isoelectric focussing = assay type: physicochemical; conditions: silver stain and enzymatic detection in gel slices
Protocol: Isoelectric focussing was performed by using Servalyt Precoates pH 3-10 and Test-Mix 9 (Serva). Prefocussing was for 30 minutes at 3 watts, and silver stain (Sigma) or Comassie blue R stain was used according to Serva instructions. In parallel, the precoates were sliced and eluted to localise inhibitory active peptides. Approximately 1 mm slices were eluted with 100 μl acetonitrile. The eluates were allowed to dry and were resolved in 100 μl of buffer (0.1M HEPES, 0.5M NaCl, 1% BSA, pH 7.5) containing 20 ng HLE. After 30 minutes incubation the remaining HLE activity was determined.

plasmin = plasmin (Homo sapiens, UniProt P00747); assay: Inhibition of plasmin (TGPLpNA substrate); assay type: biochemical
plasmin, sequence (P00747 581-810 limits assumed, species assumed): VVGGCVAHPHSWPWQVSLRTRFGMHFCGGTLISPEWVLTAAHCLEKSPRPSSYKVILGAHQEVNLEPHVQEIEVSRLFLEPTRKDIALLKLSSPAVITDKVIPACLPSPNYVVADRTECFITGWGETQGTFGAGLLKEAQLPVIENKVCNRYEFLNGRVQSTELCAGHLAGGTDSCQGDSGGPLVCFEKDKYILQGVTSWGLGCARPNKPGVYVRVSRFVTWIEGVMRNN
plasmin, sequence (P00747 97-580 partner limits assumed, species assumed): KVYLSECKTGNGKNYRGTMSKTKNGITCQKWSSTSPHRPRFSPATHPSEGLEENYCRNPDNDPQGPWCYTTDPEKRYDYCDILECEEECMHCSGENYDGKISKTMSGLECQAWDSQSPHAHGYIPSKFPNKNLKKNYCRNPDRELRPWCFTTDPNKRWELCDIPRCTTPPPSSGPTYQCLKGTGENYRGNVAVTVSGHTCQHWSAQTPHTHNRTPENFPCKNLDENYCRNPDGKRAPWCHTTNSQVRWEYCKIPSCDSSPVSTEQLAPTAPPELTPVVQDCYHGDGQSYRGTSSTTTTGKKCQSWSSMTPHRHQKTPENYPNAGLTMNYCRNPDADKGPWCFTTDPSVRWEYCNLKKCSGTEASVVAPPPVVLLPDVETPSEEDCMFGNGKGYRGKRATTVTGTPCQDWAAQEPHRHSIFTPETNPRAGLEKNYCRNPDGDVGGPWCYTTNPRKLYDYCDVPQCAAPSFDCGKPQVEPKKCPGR
Protocol: as §1

Alpha-chymotrypsin = Alpha-chymotrypsin (Bos taurus, UniProt P00766); assay: Inhibition of Alpha-chymotrypsin (AAPFpNA substrate); assay type: biochemical
Protocol: (§2) The activities of cathepsin G and Alpha-chymotrypsin were determined according to the method of Nakajima et al (9) using an analogue to HLE—succinyl-alanyl-alanyl-prolyl-phenylalanyl-p-nitroanilide (AAPFpNA, Sigma). For inhibition experiments, the highest concentration of the inhibitor was 1 μg/ml, representing a threefold molar concentration as compared to cathepsin G and Alpha-chymotrypsin.

Acid stability = assay type: physicochemical
human leukocyte elastase = target: T2, human leukocyte elastase (Homo sapiens, UniProt P08246); assay: Inhibition of human leukocyte elastase (AAPVpNA substrate; Ki by Green and Work); assay type: biochemical; conditions: for Ki: method of Green and Work
T2 construct: purchased Elastin Products Corporation, Pacific, Mo., USA
T2 sequence (P08246 30-267): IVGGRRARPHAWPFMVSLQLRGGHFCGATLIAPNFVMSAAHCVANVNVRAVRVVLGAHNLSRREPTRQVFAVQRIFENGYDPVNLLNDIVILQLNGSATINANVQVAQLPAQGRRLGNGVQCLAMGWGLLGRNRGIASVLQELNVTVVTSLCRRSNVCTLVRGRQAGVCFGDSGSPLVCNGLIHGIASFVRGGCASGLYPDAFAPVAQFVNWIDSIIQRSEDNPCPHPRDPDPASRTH
Protocol: The potency of polypeptides of the present invention to act as an elastase inhibitor was determined by the ability of a compound of the invention to inhibit the action of human leukocyte elastase (HLE) on a low molecular weight peptide substrate. The potency of an inhibitor was evaluated by obtaining a kinetic determination of the dissociation constant, Ki, of the complex formed from the interaction of th inhibitor with HLE. The substrate used was the anilide methoxysuccinyl-alanyl-alanyl-prolyl-valine-p-nitroanilide as described by K. Nakajima et al. in the J. Biol. Chem., 254: 4027-4032 (1979) and by T. Teshima et al. in J. Biol Chem., 257: No 9, 5085-5091 (1982). The HLE enzyme used in these studies may be obtained from Elastin Products of St. Louis, Mo. or can be purified according to B. R. Viscarello et al. in Preparative Biochemistry, Vol. 13, pages 57-67, (1983).
The activity of human leukocyte elastase (EC 3.4.21.37) was determined according to the method of Nakajima et al (7). Inhibition of HLE was determined by the use of the synthetic peptide methoxy-succinyl-alanyl-alanyl-prolyl-valyl-p-nitro anilide (AAPVpNA, Sigma).
Sample (100 μl) and 100 μl HLE (200 ng/ml; Elastin Products Corporation, Pacific, Mo., USA) in assay buffer (0.1M, HEPES, 0.5M NaCl, 10% DMSO, pH 7.5) were incubated for 30 minutes at room temperature. Substrate (800 μl 0.5 mM) in assay buffer was then added.
Changes in absorbance at 405 nm were followed up to 1 hour and the %-inhibition was calculated from the remaining activity and controls. The dissociation constant (Ki) was determined according to the method of Green and Work (8) in the same system, using 2 mM substrate and (1 μg/ml) HLE (final concentrations).

human cathepsin G = target: T3, human cathepsin G (Homo sapiens, UniProt P08311); assay: Inhibition of cathepsin G (AAPFpNA substrate); assay type: biochemical; conditions: substrate 0.5 mM AAPFpNA; inhibitor up to 1 μg/ml (threefold molar); n.i. = no inhibition
T3 sequence (P08311 21-255): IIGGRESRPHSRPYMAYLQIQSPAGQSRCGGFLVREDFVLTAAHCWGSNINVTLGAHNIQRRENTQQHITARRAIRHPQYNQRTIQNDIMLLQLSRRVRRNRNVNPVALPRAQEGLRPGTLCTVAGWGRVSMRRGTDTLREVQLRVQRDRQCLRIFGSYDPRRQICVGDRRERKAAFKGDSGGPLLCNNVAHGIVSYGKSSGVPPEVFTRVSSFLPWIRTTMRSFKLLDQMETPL
Protocol: as §2

[2] = at least threefold excess of the inhibitor
[3] = substrate 0.1 mM TGPLpNA, inhibitor 1 μg/ml, n.i. = no inhibition

Sequence: AQEPVKGPVSTKPGSCPIILIRCAMLNPPNRCLKDTDCPGIKKCCEGSCGMACFVPQ (cysteine pairing not given here) [prominent inhibitor]
- inhibition of trypsin (in words) (trypsin; [2]): neither Alpha- chymotrypsin, nor trypsin and plasmin were significantly inhibited
- DISSOCIATION CONSTANT (Ki), trypsin (trypsin; [3]): n.i.
- IC50 (Proteinase 3): 9.5 nM
- inhibition of porcine pancreatic elastase (in words) [1]: found to inhibit
- Ki ([1]; substrate 0.1 mM AAPV-AFC, method of Green and Work, read-out: DISSOCIATION CONSTANT (Ki), porcine pancreatic elastase): 1 nM
- isoelectric point (Isoelectric focussing): 9.7 pH
- inhibition of plasmin (in words) (plasmin; [2]): neither Alpha- chymotrypsin, nor trypsin and plasmin were significantly inhibited
- DISSOCIATION CONSTANT (Ki), plasmin (plasmin; [3]): n.i.
- inhibition of Alpha-chymotrypsin (in words) (Alpha-chymotrypsin; [2]): neither Alpha- chymotrypsin, nor trypsin and plasmin were significantly inhibited
- DISSOCIATION CONSTANT (Ki), Alpha-chymotrypsin (Alpha-chymotrypsin; substrate 0.5 mM AAPFpNA, inhibitor up to 1 μg/ml (threefold molar), n.i. = no inhibition): n.i.
- acid stability (Acid stability): acid stable
- inhibition of HLE (in words) (human leukocyte elastase): found to inhibit
- Ki (human leukocyte elastase; Poly LC-HPLC peak compared with inhibitor from human skin, read-out: Ki, titrated against HLE): 0.33 nM
- Ki (human leukocyte elastase; substrate 2 mM AAPVpNA, 1 μg/ml HLE, read-out: DISSOCIATION CONSTANT (Ki), human leukocyte elastase): 0.3 nM
- DISSOCIATION CONSTANT (Ki), human cathepsin G (human cathepsin G): n.i.
